From patent US20190062399A1

Target: B7-1Ig (CD80-Ig fusion protein) (UniProt P33681)
Test: SPR kinetics (Biacore), 75-200 nM analyte over B7-1Ig chip (694 RU)

Sequence of UniProt P33681 (P33681 35-242 limits assumed): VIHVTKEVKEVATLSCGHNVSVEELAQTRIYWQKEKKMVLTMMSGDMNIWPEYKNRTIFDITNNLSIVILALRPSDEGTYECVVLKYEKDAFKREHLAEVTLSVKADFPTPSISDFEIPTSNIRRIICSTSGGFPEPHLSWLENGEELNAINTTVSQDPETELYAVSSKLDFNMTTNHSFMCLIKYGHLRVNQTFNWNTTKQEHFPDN
Sequence of Protein A eluate of the HIC cleaning peak (mixture of all CTLA4-Ig species) (chain): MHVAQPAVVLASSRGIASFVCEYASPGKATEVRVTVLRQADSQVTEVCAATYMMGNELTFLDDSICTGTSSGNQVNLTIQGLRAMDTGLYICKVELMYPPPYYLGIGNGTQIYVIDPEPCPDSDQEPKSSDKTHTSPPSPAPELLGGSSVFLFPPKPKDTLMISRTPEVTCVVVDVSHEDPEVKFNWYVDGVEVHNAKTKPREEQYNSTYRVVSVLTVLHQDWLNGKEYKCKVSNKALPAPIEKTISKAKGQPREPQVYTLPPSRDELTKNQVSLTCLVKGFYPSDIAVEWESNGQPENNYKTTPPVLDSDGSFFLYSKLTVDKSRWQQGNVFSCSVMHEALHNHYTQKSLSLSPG

Ka: 3.87e+07 M⁻¹
Kd: 0.0258 µM
koff: 0.00973 s⁻¹
kon: 377000 M⁻¹ s⁻¹
Substance: Protein A eluate of the HIC cleaning peak (mixture of all CTLA4-Ig species)
